The source of these data is PMC3744483, “Swiprosin-1 Is a Novel Actin Bundling Protein That Regulates Cell Spreading and Migration” (PLoS ONE, 2013).

To fix the notation:
B1: His-tagged wild-type swiprosin-1 (natural protein, human, UniProt Q96C19 1-240, looked up)
chain: MATDELATKLSRRLQMEGEGGGETPEQPGLNGAAAAAAGAPDEAAEALGSADCELSAKLLRRADLNQGIGEPQSPSRRVFNPYTEFKEFSRKQIKDMEKMFKQYDAGRDGFIDLMELKLMMEKLGAPQTHLGLKNMIKEVDEDFDSKLSFREFLLIFRKAAAGELQEDSGLCVLARLSEIDVSSEGVKGAKSFFEAKVQAINVSSRFEEEIKAEQEERKKQAEEMKQRKAAFKELQSTFK
notes: swiprosin-1, human, full-length clone amplified from pOTB7 (RZPD), cloned into a modified pET-28a; The modified pET-28a carries a TEV protease cleavage site (ENLYFQ/G) with the N-terminal tandem His tags; no cleavage is described and the protein is detected with anti-His; also called Swip-1; source: E. coli BL21 (DE3), purified (Ni-NTA agarose); not shown: His tag (tandem), N-terminal, kept
B2: GST-tagged swiprosin-1 200–240 (domain or fragment, human, UniProt Q96C19 200-240, looked up)
chain: AINVSSRFEEEIKAEQEERKKQAEEMKQRKAAFKELQSTFK
notes: swiprosin-1, human, residues 200–240 (C-terminal coiled-coil region), in pGEX-4T-1; also called 200–240 (i); source: E. coli BL21, purified (glutathione beads, eluted with glutathione)
B3: GST-tagged swiprosin-1 163–240 (domain or fragment, human, UniProt Q96C19 163-240, looked up)
chain: GELQEDSGLCVLARLSEIDVSSEGVKGAKSFFEAKVQAINVSSRFEEEIKAEQEERKKQAEEMKQRKAAFKELQSTFK
notes: swiprosin-1, human, residues 163–240 (C-terminal region with the coiled-coil domain), in pGEX-4T-1; also called 163–240 (h); source: E. coli BL21, purified (glutathione beads, eluted with glutathione)

For assay [1], the target named is T1, GST-tagged wild-type swiprosin-1 (human, UniProt Q96C19 1-240).
T1 construct: swiprosin-1, human, full length, in pGEX-4T-1; source: E. coli BL21, purified (glutathione beads, eluted with glutathione)
T1 sequence (looked up): B1 chain
Nature of the assay: pull-down; GST pull-down: equal amounts of purified GST_Swip-1 (wild type or mutants) and His_Swip-1 with glutathione-Sepharose 4B beads, 2 h at 4°C, 50 mM Hepes pH 7.4, 150 mM NaCl, 1.5 mM MgCl2, 1% Triton X-100; blot with anti-His; also with or without 2 mM EGTA. The note with it: both partners purified.

In assay [2] the target is B1. The description is as above. The note with it: both partners purified.

As to B1, the binding result in assay [1] is reported as “binds”.
On to B2, for which, in assay [2], the binding result is recorded as “binds”.
B3: the binding result in assay [2] is on record as “binds”.
